{"source": "patent US20230059836A1", "about": "(NANJING LEGEND BIOTECH, published 2023)", "binders": {"B1": {"name": "BCP-78 (bispecific antibody)", "chain 1": "EVQLVESGGGVVQPGRSLRLSCAASGRTITTITMGWFRQAPGKGREFVASHSWTDNNPYYADSVKGRFTISRDNAKNTLYLQMNSLRPEDTAVYYCAATARRSFVGRQWYTEARQYDYWGQGTLVTVSSEPKSSDKTHTSPPSPQVQLVESGGGVVQPGRSLRLDCKASGITFSNSGMHWVRQAPGKGLEWVAVIWYDGSKRYYADSVKGRFTISRDNSKNTLFLQMNSLRAEDTAVYYCATNDDYWGQGTLVTVSSASTKGPSVFPLAPCSRSTSESTAALGCLVKDYFPEPVTVSWNSGALTSGVHTFPAVLQSSGLYSLSSVVTVPSSSLGTKTYTCNVDHKPSNTKVDKRVESKYGPPCPPCPAPEFLGGPSVFLFPPKPKDTLMISRTPEVTCVVVDVSQEDPEVQFNWYVDGVEVHNAKTKPREEQFNSTYRVVSVLTVLHQDWLNGKEYKCKVSNKGLPSSIEKTISKAKGQPREPQVYTLPPSQEEMTKNQVSLTCLVKGFYPSDIAVEWESNGQPENNYKTTPPVLDSDGSFFLYSRLVDKSRWQEGNVFSCSVMHEALHNHYTQKSLSLSLGK", "chain 2": "not shown"}, "B2": {"name": "BCP-73 (bispecific antibody)", "chain 1": "not shown", "chain 2": "EIVLTQSPATLSLSPGERATLSCRASKGVSTSGYSYLHWYQQKPGQAPRLLIYLASYLESGVPARFSGSGSGTDFTLTISSLEPEDFAVYYCQHSRDLPLTFGGGTKVEIKRTVAAPSVFIFPPSDEQLKSGTASVVCLLNNFYPREAKVQWKVDNALQSGNSQESVTEQDSKDSTYSLSSTLTLSKADYEKHKVYACEVTHQGLSSPVTKSFNRGEC"}, "B3": {"name": "BCP-75 (bispecific antibody)", "chain 1": "not shown", "chain 2": "B2 chain 2"}, "B4": {"name": "BCP-74 (bispecific antibody)", "chain 1": "not shown", "chain 2": "B2 chain 2"}}}
{"target": "human PD-1 expressed on CHO cells (human, UniProt Q15116 25-288)", "sequence (Q15116 25-288)": "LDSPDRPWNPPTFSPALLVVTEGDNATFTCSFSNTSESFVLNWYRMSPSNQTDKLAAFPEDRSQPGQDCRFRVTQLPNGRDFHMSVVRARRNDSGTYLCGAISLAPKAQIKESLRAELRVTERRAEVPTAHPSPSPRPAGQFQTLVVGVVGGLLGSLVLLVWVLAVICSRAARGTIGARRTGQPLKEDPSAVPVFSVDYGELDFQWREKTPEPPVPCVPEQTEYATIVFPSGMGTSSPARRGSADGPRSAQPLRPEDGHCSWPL", "experiment": "cell-based or functional assay", "units": {"EC50 (nM), NFAT luciferase, PD-1/NFAT Reporter-Jurkat cells with CHO-K1 expressing human PD-L1 and TCR activator": "nM"}}
{"binder": "B1", "EC50 (nM), NFAT luciferase, PD-1/NFAT Reporter-Jurkat cells with CHO-K1 expressing human PD-L1 and TCR activator": 8.9}
{"binder": "B2", "EC50 (nM), NFAT luciferase, PD-1/NFAT Reporter-Jurkat cells with CHO-K1 expressing human PD-L1 and TCR activator": 1.6}
{"binder": "B3", "EC50 (nM), NFAT luciferase, PD-1/NFAT Reporter-Jurkat cells with CHO-K1 expressing human PD-L1 and TCR activator": 5.5}
{"binder": "B4", "EC50 (nM), NFAT luciferase, PD-1/NFAT Reporter-Jurkat cells with CHO-K1 expressing human PD-L1 and TCR activator": 4.3}
{"target": "CTLA-4-Fc (GenScript, Z03373-50) (UniProt P16410 36-161)", "sequence (P16410 36-161 limits assumed, one chain of several)": "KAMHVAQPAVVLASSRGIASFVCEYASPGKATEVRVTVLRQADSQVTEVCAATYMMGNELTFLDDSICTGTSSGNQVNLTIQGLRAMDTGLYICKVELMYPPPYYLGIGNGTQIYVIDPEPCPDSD", "experiment": "cell-based or functional assay", "units": {"EC50 (nM), IL-2 secretion, CD4+ T cells with CHO-K1/human CD80 and CTLA-4-Fc": "nM"}}
{"binder": "B1", "EC50 (nM), IL-2 secretion, CD4+ T cells with CHO-K1/human CD80 and CTLA-4-Fc": 8.4}
{"binder": "B2", "EC50 (nM), IL-2 secretion, CD4+ T cells with CHO-K1/human CD80 and CTLA-4-Fc": 12.1}
{"binder": "B3", "EC50 (nM), IL-2 secretion, CD4+ T cells with CHO-K1/human CD80 and CTLA-4-Fc": 12.1}
{"binder": "B4", "EC50 (nM), IL-2 secretion, CD4+ T cells with CHO-K1/human CD80 and CTLA-4-Fc": 14.3}
